Test results from patent publication US20210369842A1 (Genmab, published 2021).

Assays:
[1] = target: T1, African elephant (Loxodonta africana) CD137 (African elephant (Loxodonta africana)); test: flow cytometry on transfected HEK293T-17 cells
T1 construct: Expressed on transfected HEK293T-17 cells; Amino acids 1-23 are stated as the predicted signal peptide; also called elephant CD137
T1 chain: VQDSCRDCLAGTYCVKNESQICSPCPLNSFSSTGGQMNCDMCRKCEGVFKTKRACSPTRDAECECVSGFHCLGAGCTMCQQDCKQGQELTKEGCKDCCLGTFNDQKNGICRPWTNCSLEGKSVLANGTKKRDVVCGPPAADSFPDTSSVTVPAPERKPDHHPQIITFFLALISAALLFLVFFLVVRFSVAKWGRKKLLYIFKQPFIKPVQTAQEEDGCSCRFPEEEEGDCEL
Method: (§1) 3×10⁶ HEK293T-17 cells were seeded in T75 culture flasks (Greiner Bio-One, cat. no. 658175) in 20 mL RPMI 1640 GlutaMAX medium containing 10% FCS (Biochrom, cat. no. S 0115). After O/N incubation, cells were transiently […] with expression vectors encoding the shuffle constructs or the wild boar, African elephant or human CD137 downstream of a constitutively active human elongation factor-1 alpha (EF-1 alpha) promotor using TransIT®-LT1 Transfection Reagent, Mirus Bio (VWR International, cat. no. 731-0029), according to the manufacturer's instructions. The next day, cells were harvested using 1.5 mL Accutase (Sigma Aldrich, cat. no. A6964) (incubation at 37° C. for 5 min.) and flow cytometry was performed, essentially as described supra, to measure surface expression of the shuffle constructs and the human, African elephant and wild boar CD137 and to measure binding of the antibody clones to the different shuffle constructs. […] Binding of the different CD137 antibody clones to cells expressing the shuffle constructs was measured by incubation of the transduced cells with 1 μg/mL of the antibody clones, followed by APC-labeled AffiniPure F(ab′)2 Fragment (1:50 final dilution; Jackson, cat. no. 109-136-127).

[2] = target: T2, Wild boar (Sus scrofa) CD137 (wild boar (Sus scrofa)); test: flow cytometry on transfected HEK293T-17 cells
T2 construct: Expressed on transfected HEK293T-17 cells; Amino acids 1-23 are stated as the predicted signal peptide; also called wild boar CD137
T2 chain: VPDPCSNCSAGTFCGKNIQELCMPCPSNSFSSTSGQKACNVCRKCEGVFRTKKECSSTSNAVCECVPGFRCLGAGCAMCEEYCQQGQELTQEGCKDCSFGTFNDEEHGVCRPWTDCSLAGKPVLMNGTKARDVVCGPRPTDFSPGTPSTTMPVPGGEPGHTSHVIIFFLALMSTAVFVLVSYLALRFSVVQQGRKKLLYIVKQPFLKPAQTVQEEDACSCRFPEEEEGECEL
Method: as §1

[3] = target: T3, Human CD137 shuffle 5 (amino acids 48-88 of African elephant CD137) (human CD137 with an African elephant …, UniProt Q07011 24-255); test: flow cytometry on transfected HEK293T-17 cells
T3 construct: also called shuffle construct 5
T3 chain: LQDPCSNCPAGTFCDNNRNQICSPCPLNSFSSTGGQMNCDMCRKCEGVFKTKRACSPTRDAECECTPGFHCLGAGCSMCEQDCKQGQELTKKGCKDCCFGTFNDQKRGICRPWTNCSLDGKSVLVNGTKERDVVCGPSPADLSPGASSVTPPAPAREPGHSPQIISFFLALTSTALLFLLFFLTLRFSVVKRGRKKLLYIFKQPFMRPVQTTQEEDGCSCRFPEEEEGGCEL
Method: as §1

Human CD137 = target: T4, Human CD137 (human, UniProt Q07011 24-255); test: flow cytometry on HEK293T-17 cells transfected with human CD137, 1 µg/mL antibody
T4 construct: Amino acids 1-23 are stated as the predicted signal peptide; also called hCD137 wt; 4-1BB
Method: as §1

Shuffle 1 = target: T5, Shuffle 1; test: flow cytometry on transfected HEK293-T17 cells, 1 µg/mL antibody, APC-labeled AffiniPure F(ab')2 fragment as secondary
T5 construct: Expressed on transiently transfected HEK293-T17 cells; also called Human CD137 shuffle 1 (amino acids 162-186 of wild boar CD137); shuffle construct 1
T5 receptor chain: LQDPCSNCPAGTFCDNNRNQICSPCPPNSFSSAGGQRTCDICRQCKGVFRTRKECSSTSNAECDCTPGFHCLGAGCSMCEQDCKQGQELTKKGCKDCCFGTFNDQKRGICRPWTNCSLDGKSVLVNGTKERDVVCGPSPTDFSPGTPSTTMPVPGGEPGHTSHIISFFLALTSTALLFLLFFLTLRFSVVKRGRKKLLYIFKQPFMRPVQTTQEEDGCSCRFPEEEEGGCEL
Method: as §1

Shuffle 2 = target: T6, Shuffle 2; test: as above
T6 construct: Expressed on transiently transfected HEK293-T17 cells; also called Human CD137 shuffle 2 (amino acids 139-161 of wild boar CD137); shuffle construct 2
T6 receptor chain: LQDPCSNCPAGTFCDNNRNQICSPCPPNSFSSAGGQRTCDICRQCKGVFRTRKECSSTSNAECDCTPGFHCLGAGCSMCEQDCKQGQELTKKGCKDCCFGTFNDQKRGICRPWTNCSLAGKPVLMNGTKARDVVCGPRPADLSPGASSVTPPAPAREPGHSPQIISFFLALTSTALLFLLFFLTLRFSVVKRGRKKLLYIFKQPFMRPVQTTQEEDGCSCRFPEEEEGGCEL
Method: as §1

Shuffle 3 = target: T7, Shuffle 3; test: as above
T7 construct: Expressed on transiently transfected HEK293-T17 cells; also called Human CD137 shuffle 3 (amino acids 115-138 of wild boar CD137); shuffle construct 3
T7 receptor chain: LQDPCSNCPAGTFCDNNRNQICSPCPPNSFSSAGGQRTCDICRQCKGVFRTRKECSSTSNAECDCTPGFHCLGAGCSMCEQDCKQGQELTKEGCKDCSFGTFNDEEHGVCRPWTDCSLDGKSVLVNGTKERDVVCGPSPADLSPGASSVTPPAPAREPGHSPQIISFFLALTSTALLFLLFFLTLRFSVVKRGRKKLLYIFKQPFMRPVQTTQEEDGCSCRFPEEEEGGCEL
Method: as §1

Shuffle 4 = target: T8, Shuffle 4; test: as above
T8 construct: Expressed on transiently transfected HEK293-T17 cells; also called Human CD137 shuffle 4 (amino acids 89-114 of wild boar CD137); shuffle construct 4
T8 receptor chain: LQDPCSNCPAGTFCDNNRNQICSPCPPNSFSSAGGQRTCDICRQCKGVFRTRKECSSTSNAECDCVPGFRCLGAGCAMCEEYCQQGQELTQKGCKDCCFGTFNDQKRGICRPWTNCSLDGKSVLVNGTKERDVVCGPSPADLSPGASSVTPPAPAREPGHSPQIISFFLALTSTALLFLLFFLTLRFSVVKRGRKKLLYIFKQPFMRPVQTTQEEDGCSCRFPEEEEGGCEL
Method: as §1

binding result [1]: no binding (tested: 1 µg/mL) | binding result [2]: no binding (tested: 1 µg/mL) | binding result [3]: no binding (tested: 1 µg/mL) | binding result (Human CD137): binds | binding result (Shuffle 1): binds | binding result (Shuffle 2): binds | binding result (Shuffle 3): binds | binding result (Shuffle 4): binds
B1: CD137-009 (chimeric rabbit/human CD137 antibody) (antibody, V domains shown)
VH: QSLEESGGRLVTPGTPLTLTCTVSGFSLNDYWMSWVRQAPGKGLEWIGYIDVGGSLYYASWAKGRFTISRTSTTVDLKMTSLTTEDTATYFCARGGLTYGFDLWGPGTLVTVSS
VL: DIVMTQTPASVSEPVGGTVTINCQASEDISSYLAWYQQKPGQRPKRLIYGASDLASGVPSRFSASGSGTEYALTISDLESADAATYYCHYYATISGLGVAFGGGTEVVVK
notes: also called antibody CD137-009; rabbit anti-CD137-009
